*1 amine or outer side, *2 acyl side, *3 side chain or, on linkers, in order; H or OH if unused. [ ]: non-standard residue; d: D form. 3AzaPhe4AcPip = (S)-3-(6-(4-acetylpiperazin-1-yl)pyridin-3-yl)-2-aminopropanoic acid, CC(=O)N1CCN(c2ccc(C[C@H](N[*:1])C(=O)[*:2])cn2)CC1; Trp(4-Cl)(βS-Me) = C[C@@H](c1c[nH]c2cccc(Cl)c12)[C@H](N)C(=O)O; Pro(trans-4-NH2) = O=C([C@@H]1C[C@@H](N[*:3])CN1[*:1])[*:2]; Trp(βS-Me,4-F) = C[C@@H](c1c[nH]c2cccc(F)c12)[C@H](N)C(=O)O; Bip(4'-COOH) = N[C@@H](Cc1ccc(-c2ccc(C(=O)O)cc2)cc1)C(=O)O; hQ = L-homoglutamine, NC(=O)CCC[C@H](N[*:1])C(=O)[*:2]; Phe(4-COOH) = N[C@@H](Cc1ccc(C(=O)O)cc1)C(=O)O; h3Pal(5-CN) = N#Cc1cncc(CC[C@H](N)C(=O)O)c1; Ala(4-THP) = N[C@@H](CC1CCOCC1)C(=O)O; hTyr = N[C@@H](CCc1ccc(O)cc1)C(=O)O; h4Pal = N[C@@H](CCc1ccncc1)C(=O)O; 4Pal = N[C@@H](Cc1ccncc1)C(=O)O; hLys = NCCCCC[C@H](N)C(=O)O; dDab = NCC[C@@H](N)C(=O)O; dNMeA = CN[C@H](C)C(=O)O

The target of this assay is Recombinant human IL-1β (BioLegend 579404) (human, UniProt P01584 117-269). Description: cell-based or functional assay.

B1: SEQ ID NO: 58 (peptide)
peptide: cyclo([Bip(4'-COOH)]W[Phe(4-COOH)]G[Pro(trans-4-NH2)][Trp(βS-Me,4-F)]A[dNMeA]G[Bip(4'-COOH)]KL[dA][hTyr])
SMILES: CC(C)C[C@@H]1NC(=O)[C@H](CCCCN)NC(=O)[C@H](Cc2ccc(-c3ccc(C(=O)O)cc3)cc2)NC(=O)CNC(=O)[C@@H](C)N(C)C(=O)[C@H](C)NC(=O)[C@H]([C@@H](C)c2c[nH]c3cccc(F)c23)NC(=O)[C@@H]2C[C@@H](N)CN2C(=O)CNC(=O)[C@H](Cc2ccc(C(=O)O)cc2)NC(=O)[C@H](Cc2c[nH]c3ccccc23)NC(=O)[C@H](Cc2ccc(-c3ccc(C(=O)O)cc3)cc2)NC(=O)[C@H](CCc2ccc(O)cc2)NC(=O)[C@@H](C)NC1=O
As for B1, the “MRC5 IC50” value is 0.247 nM.

B2: SEQ ID NO: 61 (peptide)
peptide: cyclo([Bip(4'-COOH)]W[Phe(4-COOH)]G[Pro(trans-4-NH2)][Trp(βS-Me,4-F)]D[dNMeA]G[Bip(4'-COOH)][h4Pal]L[dA][hTyr])
SMILES: CC(C)C[C@@H]1NC(=O)[C@H](CCc2ccncc2)NC(=O)[C@H](Cc2ccc(-c3ccc(C(=O)O)cc3)cc2)NC(=O)CNC(=O)[C@@H](C)N(C)C(=O)[C@H](CC(=O)O)NC(=O)[C@H]([C@@H](C)c2c[nH]c3cccc(F)c23)NC(=O)[C@@H]2C[C@@H](N)CN2C(=O)CNC(=O)[C@H](Cc2ccc(C(=O)O)cc2)NC(=O)[C@H](Cc2c[nH]c3ccccc23)NC(=O)[C@H](Cc2ccc(-c3ccc(C(=O)O)cc3)cc2)NC(=O)[C@H](CCc2ccc(O)cc2)NC(=O)[C@@H](C)NC1=O
For B2, the “MRC5 IC50” value worked out at 0.312 nM.

B3: SEQ ID NO: 64 (peptide)
peptide: cyclo([Bip(4'-COOH)]W[Phe(4-COOH)]G[Pro(trans-4-NH2)][Trp(βS-Me,4-F)]D[dNMeA]G[Bip(4'-COOH)]K[Ala(4-THP)][dA][h3Pal(5-CN)])
SMILES: C[C@@H]1C(=O)NCC(=O)N[C@@H](Cc2ccc(-c3ccc(C(=O)O)cc3)cc2)C(=O)N[C@@H](CCCCN)C(=O)N[C@@H](CC2CCOCC2)C(=O)N[C@H](C)C(=O)N[C@@H](CCc2cncc(C#N)c2)C(=O)N[C@@H](Cc2ccc(-c3ccc(C(=O)O)cc3)cc2)C(=O)N[C@@H](Cc2c[nH]c3ccccc23)C(=O)N[C@@H](Cc2ccc(C(=O)O)cc2)C(=O)NCC(=O)N2C[C@H](N)C[C@H]2C(=O)N[C@@H]([C@@H](C)c2c[nH]c3cccc(F)c23)C(=O)N[C@@H](CC(=O)O)C(=O)N1C
For B3, the “MRC5 IC50” value worked out at 0.0182 nM.

B4: SEQ ID NO: 62 (peptide)
peptide: cyclo([Bip(4'-COOH)]W[Phe(4-COOH)]G[Pro(trans-4-NH2)][Trp(βS-Me,4-F)]D[dNMeA]G[Bip(4'-COOH)][hLys]L[dA][hTyr])
SMILES: CC(C)C[C@@H]1NC(=O)[C@H](CCCCCN)NC(=O)[C@H](Cc2ccc(-c3ccc(C(=O)O)cc3)cc2)NC(=O)CNC(=O)[C@@H](C)N(C)C(=O)[C@H](CC(=O)O)NC(=O)[C@H]([C@@H](C)c2c[nH]c3cccc(F)c23)NC(=O)[C@@H]2C[C@@H](N)CN2C(=O)CNC(=O)[C@H](Cc2ccc(C(=O)O)cc2)NC(=O)[C@H](Cc2c[nH]c3ccccc23)NC(=O)[C@H](Cc2ccc(-c3ccc(C(=O)O)cc3)cc2)NC(=O)[C@H](CCc2ccc(O)cc2)NC(=O)[C@@H](C)NC1=O
Regarding B4, the “MRC5 IC50” value was found to be 0.283 nM.

B5: SEQ ID NO: 60 (peptide)
peptide: cyclo([Bip(4'-COOH)]W[Phe(4-COOH)]G[Pro(trans-4-NH2)][Trp(βS-Me,4-F)]D[dNMeA]G[Bip(4'-COOH)]FL[dA][hTyr])
SMILES: CC(C)C[C@@H]1NC(=O)[C@H](Cc2ccccc2)NC(=O)[C@H](Cc2ccc(-c3ccc(C(=O)O)cc3)cc2)NC(=O)CNC(=O)[C@@H](C)N(C)C(=O)[C@H](CC(=O)O)NC(=O)[C@H]([C@@H](C)c2c[nH]c3cccc(F)c23)NC(=O)[C@@H]2C[C@@H](N)CN2C(=O)CNC(=O)[C@H](Cc2ccc(C(=O)O)cc2)NC(=O)[C@H](Cc2c[nH]c3ccccc23)NC(=O)[C@H](Cc2ccc(-c3ccc(C(=O)O)cc3)cc2)NC(=O)[C@H](CCc2ccc(O)cc2)NC(=O)[C@@H](C)NC1=O
As for B5, the “MRC5 IC50” value amounted to 0.0689 nM.

B6: SEQ ID NO: 63 (peptide)
peptide: cyclo([Bip(4'-COOH)]W[Phe(4-COOH)]G[Pro(trans-4-NH2)][Trp(βS-Me,4-F)]D[dNMeA]G[Bip(4'-COOH)][hQ]L[dA][hTyr])
SMILES: CC(C)C[C@@H]1NC(=O)[C@H](CCCC(N)=O)NC(=O)[C@H](Cc2ccc(-c3ccc(C(=O)O)cc3)cc2)NC(=O)CNC(=O)[C@@H](C)N(C)C(=O)[C@H](CC(=O)O)NC(=O)[C@H]([C@@H](C)c2c[nH]c3cccc(F)c23)NC(=O)[C@@H]2C[C@@H](N)CN2C(=O)CNC(=O)[C@H](Cc2ccc(C(=O)O)cc2)NC(=O)[C@H](Cc2c[nH]c3ccccc23)NC(=O)[C@H](Cc2ccc(-c3ccc(C(=O)O)cc3)cc2)NC(=O)[C@H](CCc2ccc(O)cc2)NC(=O)[C@@H](C)NC1=O
Regarding B6, the “MRC5 IC50” value was found to be 0.063 nM.

B7: SEQ ID NO: 6 (peptide)
peptide: cyclo([3AzaPhe4AcPip]W[Phe(4-COOH)]G[Pro(trans-4-NH2)][Trp(βS-Me,4-F)]D[dNMeA]G[Bip(4'-COOH)]KL[dA][hTyr])
SMILES: CC(=O)N1CCN(c2ccc(C[C@@H]3NC(=O)[C@H](CCc4ccc(O)cc4)NC(=O)[C@@H](C)NC(=O)[C@H](CC(C)C)NC(=O)[C@H](CCCCN)NC(=O)[C@H](Cc4ccc(-c5ccc(C(=O)O)cc5)cc4)NC(=O)CNC(=O)[C@@H](C)N(C)C(=O)[C@H](CC(=O)O)NC(=O)[C@H]([C@@H](C)c4c[nH]c5cccc(F)c45)NC(=O)[C@@H]4C[C@@H](N)CN4C(=O)CNC(=O)[C@H](Cc4ccc(C(=O)O)cc4)NC(=O)[C@H](Cc4c[nH]c5ccccc45)NC3=O)cn2)CC1
With B7, the “MRC5 IC50” value was 0.0666 nM.

B8: SEQ ID NO: 59 (peptide)
peptide: cyclo([Bip(4'-COOH)]W[Phe(4-COOH)]G[Pro(trans-4-NH2)][Trp(βS-Me,4-F)]D[dNMeA]G[Bip(4'-COOH)][4Pal]L[dA][hTyr])
SMILES: CC(C)C[C@@H]1NC(=O)[C@H](Cc2ccncc2)NC(=O)[C@H](Cc2ccc(-c3ccc(C(=O)O)cc3)cc2)NC(=O)CNC(=O)[C@@H](C)N(C)C(=O)[C@H](CC(=O)O)NC(=O)[C@H]([C@@H](C)c2c[nH]c3cccc(F)c23)NC(=O)[C@@H]2C[C@@H](N)CN2C(=O)CNC(=O)[C@H](Cc2ccc(C(=O)O)cc2)NC(=O)[C@H](Cc2c[nH]c3ccccc23)NC(=O)[C@H](Cc2ccc(-c3ccc(C(=O)O)cc3)cc2)NC(=O)[C@H](CCc2ccc(O)cc2)NC(=O)[C@@H](C)NC1=O
Take B8: the “MRC5 IC50” value turned out to be 0.0362 nM.

B9: SEQ ID NO: 57 (peptide)
peptide: cyclo([Bip(4'-COOH)]W[Phe(4-COOH)]G[Pro(trans-4-NH2)][Trp(4-Cl)(βS-Me)]Q[dNMeA]G[Bip(4'-COOH)]WG[dDab][hTyr])
SMILES: C[C@@H]1C(=O)NCC(=O)N[C@@H](Cc2ccc(-c3ccc(C(=O)O)cc3)cc2)C(=O)N[C@@H](Cc2c[nH]c3ccccc23)C(=O)NCC(=O)N[C@H](CCN)C(=O)N[C@@H](CCc2ccc(O)cc2)C(=O)N[C@@H](Cc2ccc(-c3ccc(C(=O)O)cc3)cc2)C(=O)N[C@@H](Cc2c[nH]c3ccccc23)C(=O)N[C@@H](Cc2ccc(C(=O)O)cc2)C(=O)NCC(=O)N2C[C@H](N)C[C@H]2C(=O)N[C@@H]([C@@H](C)c2c[nH]c3cccc(Cl)c23)C(=O)N[C@@H](CCC(N)=O)C(=O)N1C
B9: the “MRC5 IC50” value stood at 0.0873 nM.

(Values after patent US20230406885A1, “CYCLIC PEPTIDES FOR TRAPPING INTERLEUKIN-1 BETA” (MERCK SHARP & DOHME LLC, priority 2022, published 2023).)
